Test results reported in patent US20050171004A1, “Use of cardiotrophin-1 to promote wound healing and counteract overt fibrosis” (priority 2003, published 2005).

Tests used:
[1] = tested on: cardiac fibroblasts; assay: Immunofluorescence of STAT3 nuclear accumulation; assay type: cell-based, rat; settings: CT-1 for 5 minutes
Protocol: Cardiac fibroblasts were seeded onto coverslips in 6 well dishes and allowed to attach overnight in media containing 10% serum. The cells were rendered quiescent in serum free media for 24 hours before being stimulated with CT-1 for specified times. The media was removed, cells were rinsed with PBS and fixed with 4% paraformaldehyde. Cells were permeabilized with 0.1% Triton X-100 and incubated with primary antibodies, biotinylated secondary antibodies, and streptavidin FITC. Nuclei were stained with Hoechst 33342. The cells were visualized with epifluorescent microscopy with appropriate filters (Nikon Canada).

[2] = tested on: cardiac fibroblasts; assay: Western analysis of cell cycle regulatory proteins (cyclins, Rb); assay type: cell-based, rat
Protocol: (§1) Protein concentrations of tissue and cell lysates were determined by the BCA method (Smith et al., 1985, Anal Biochem 150: 76-85). Proteins were separated by 8-12% SDS-PAGE and transferred to PVDF membrane (Roche, Indianapolis, Ind.) for 1 hour at 300 mA for small proteins or for 2 hours at 500 mA for proteins greater than 100 kDa. Membranes were blocked with 5% non-fat skim milk in tris-buffered saline containing 0.2% Tween 20 (TBST). Proteins were visualized with ECL Plus (Amersham) after probing with primary and secondary antibodies. Band intensity was quantified using a CCD camera imaging densitometer (GS670, Bio-Rad Laboratories (Canada) Ltd. Mississauga, Ontario).
Cardiac fibroblasts were isolated from the ventricles of rats and incubated with CT-1 for specified times and at specified concentrations. […] Addition of CT-1 results in S-phase re-entry within 6 hours of stimulation (FIG. 7). […] (FIG. 8). […] To determine the effect of CT-1 on cell cycle regulatory proteins, we incubated cardiac fibroblasts with CT-1 and lysed them at specified times. […] To determine if increased DNA synthesis was accompanied by an increase in cell number, we repeated the experiments in the absence of ^3H-thymidine, detached the cells from the plates and counted the total number of cells.

[3] = tested on: cardiac fibroblasts; assay: Nuclear accumulation of PCNA; assay type: cell-based, rat; settings: CT-1 for 24 hours
Protocol: Cardiac fibroblasts were seeded onto cover slips and allowed to attach overnight. The cells were incubated with serum free media for 24 hours prior to stimulation with CT-1 for an additional 24 hours. The cells were then fixed with cold acetone, permeabilized and immunostained for PCNA and counter stained with Hoechst 33342. Images from 5 high power fields per slide were captured and cells were counted. Nuclei that were positive for PCNA were counted and expressed as a ratio to total nuclei.

[4] = tested on: cardiac fibroblasts; assay: Cell counting (Coulter counter); assay type: cell-based, rat; settings: CT-1 for 24 hours
Protocol: To determine absolute cell numbers after stimulation with CT-1, the total number of cells were counted. Equal numbers of cells were loaded into each well of 24 well plates and incubated with CT-1 for 24 hours. The cells were detached with trypsin, diluted in filtered phosphate buffered saline, and counted with Model ZM Coulter cell counter (Beckman Coulter, Fullerton, Calif.).

[5] = tested on: cardiac fibroblasts; assay: Western analysis of phosphorylation of translational regulatory proteins; assay type: cell-based, rat; settings: stimulation with CT-1
Protocol: as §1
To determine the effect of CT-1 on protein synthesis in cardiac fibroblasts we measured incorporation of ^3H-labeled leucine. […] Since the activity of translational regulatory proteins is modified by phosphorylation, we used phospho-specific antibodies to determine if CT-1 directly influenced the activity of these regulatory proteins.
We then determined the effect of pharmacologic inhibitors on the activation of this signaling cascade.

[6] = tested on: cardiac fibroblasts; assay: Collagen synthesis (P1CP radioimmunoassay of conditioned media); assay type: cell-based, rat; settings: CT-1 for 24 hours
Protocol: Synthesis of mature type I collagen was determined by measuring the concentration of the carboxyterminal propeptide of type I collagen (P1CP) in conditioned media from CT-1 treated or untreated cardiac fibroblasts. 5×10^4 cells were loaded into each well of a 6 well plate, allowed to attach overnight, and serum starved for 24 hours. Cells were treated with CT-1 at specified concentrations for an additional 24 or 48 hours. P1CP content in 0.1 mL conditioned media was determined by radioimmunoassay according to the manufacturer's specification (Diasorin Inc, Stillwater, Minn.). Radioactivity was quantified with a gamma counter (Gamma 5500, Beckman Coulter, Fullerton, Calif.) and the concentration of P1CP was determined by the % B/B0 versus log concentration.

[7] = tested on: cardiac fibroblasts; assay: Wounded monolayer model, cortactin immunostaining; assay type: cell-based, rat; settings: 4 hours after creation of the wound
Protocol: Cardiac fibroblasts were seeded onto coverslips in 6-well dishes and allowed to proliferate. Once the cells were near confluency, they were serum deprived for 24 hours. A scrape was made down the middle of the coverslip with the blunt end of a 1 ml syringe and the media was changed again. Cells were further incubated in the presence or absence of CT-1 and inhibitors at specified concentrations for specified times. The cells were then subjected to immunofluorescence staining as described herein.

[8] = tested on: porcine coronary artery vascular smooth muscle cells; assay: Chemotaxis of vascular smooth muscle cells (data not shown); assay type: cell-based

B1: cardiotrophin-1 (protein, UniProt Q16619 1-201, looked up)
Cardiotrophin-1: MSRREGSLEDPQTDSSVSLLPHLEAKIRQTHSLAHLLTKYAEQLLQEYVQLQGDPFGLPSFSPPRLPVAGLSAPAPSHAGLPVHERLRLDAAALAALPPLLDAVCRRQAELNPRAPRLLRRLEDAARQARALGAAVEALLAALGAANRGPRAEPPAATASAASATGVFPAKVLGLRVCGLYREWLSRTEGDLGQLLPGGSA
notes: gp130 signaling cytokine of the LIF or IL-6 superfamily; 201 amino acids as a mature protein, 21.5 kDa
nuclear accumulation of STAT3 [1]: nuclear accumulation of STAT3 | phosphorylation of the retinoblastoma protein ([2]; Rb pS795, pS807/811): hyperphosphorylation | expression of cyclins ([2]; cyclins A, E, CT-1 for specified times): increase in expression of cyclins | nuclear expression of PCNA [3]: increased nuclear expression of PCNA | total cell number [4]: increase in total cell number | phosphorylation of Akt T308/S473, p70 S6 kinase T389 and S421/T424, Mnk1, eIF4E, 4E-BP1 and S6 ribosomal protein [5]: induced an increase in phosphorylation | P1CP expression normalized to the number of cells at the end of the experiment ([6]; corrected for cell number): apparent decrease in overall mature collagen synthesis | expression of P1CP in the culture media (mature collagen synthesis) ([6]; not normalized): increased expression of P1CP | localization of cortactin [7]: at the leading edge of lamellipodia | chemotactic effect [8]: does appear to have a chemotatic effect
